B1: SR-AB48-HuFab (antibody, V domains shown)
VH: QVQLVESGGGVVQPGRSLRLSCAASGFTFRSYVMHWVRQAPGKGLEWVAVISHEGSGKYYADSVKGRFTISRDNSKNTLYLQMNSLRAEDTAVYYCARPRIAARRGGFGSWGQGTLVTVSS
VL: NFMLTQPHSVSESPGKTVTISCTRSSGNIDYNYVQWYQQRPGSSPTTVIYEDNVRPSGVPDRFSGSIDSSSNSASLTISGLKTEDEADYYCQSYDYDTQGVVFGGGTKLTVL
B2: SR-AB46-HuFab (antibody, V domains shown)
VH: QVQLVESGGGVVQPGRSLRLSCAASGFTFRSYVMHWVRQAPGKGLEWVAVISHEGSGKYYADSVKGRFTISRDNSKNTLYLQMNSLRAEDTAVYYCARPRIAARRGGFGSWGQGTLVTVSS
VL: NFMLTQPHSVSESPGKTVTISCTRSSGNIDYNYVQWYQQRPGSSPTTVIYEDNVRPSGVPDRFSGSIDSSSNSASLTISGLKTEDEADYYCQSYDSDNQRVVFGGGTKLTVL
B3: SR-AB49-HuFab (antibody, V domains shown)
VH: QVQLVESGGGVVQPGRSLRLSCAASGFTFRSYVMHWVRQAPGKGLEWVAVISHEGSGKYYADSVKGRFTISRDNSKNTLYLQMNSLRAEDTAVYYCARPRIAARRGGFGSWGQGTLVTVSS
VL: NFMLTQPHSVSESPGKTVTISCTRSSGNIDYNYVQWYQQRPGSSPTTVIYEDNVRPSGVPDRFSGSIDSSSNSASLTISGLKTEDEADYYCQGYDWDTQGVVFGGGTKLTVL
B4: SR-AB52-HuFab (antibody, V domains shown)
VH: QVQLVESGGGVVQPGRSLRLSCAASGFTFRSYVMHWVRQAPGKGLEWVAVISHEGSGKYYADSVKGRFTISRDNSKNTLYLQMNSLRAEDTAVYYCARPRIAARRGGFGTWGQGTLVTVSS
VL: NFMLTQPHSVSESPGKTVTISCTRSSGNIDYNYVQWYQQRPGSSPTTVIYEDNVRPSGVPDRFSGSIDSSSNSASLTISGLKTEDEADYYCQSYDYDTQGVVFGGGTKLTVL
B5: SR-AB53-HuFab (antibody, V domains shown)
VH: QVQLVESGGGVVQPGRSLRLSCAASGFTFRSYVMHWVRQAPGKGLEWVAVISHEGSGKYYADSVKGRFTISRDNSKNTLYLQMNSLRAEDTAVYYCARPRIAARRGGFGTWGQGTLVTVSS
VL: NFMLTQPHSVSESPGKTVTISCTRSSGNIDYNYVQWYQQRPGSSPTTVIYEDNVRPSGVPDRFSGSIDSSSNSASLTISGLKTEDEADYYCQGYDWDTQGVVFGGGTKLTVL
B6: SR-AB47-HuFab (antibody, V domains shown)
VH: QVQLVESGGGVVQPGRSLRLSCAASGFTFRSYVMHWVRQAPGKGLEWVAVISHEGSGKYYADSVKGRFTISRDNSKNTLYLQMNSLRAEDTAVYYCARPRIAARRGGFGSWGQGTLVTVSS
VL: NFMLTQPHSVSESPGKTVTISCTRSSGNIDYNYVQWYQQRPGSSPTTVIYEDNVRPSGVPDRFSGSIDSSSNSASLTISGLKTEDEADYYCQSYDYDNQAVVFGGGTKLTVL
B7: SR-AB55-HuFab (antibody, V domains shown)
VH: QVQLVESGGGVVQPGRSLRLSCAASGFTFRSYVMHWVRQAPGKGLEWVAVISHEGSGKYYADSVKGRFTISRDNSKNTLYLQMNSLRAEDTAVYYCALPRIAARRGGFGSWGQGTLVTVSS
VL: NFMLTQPHSVSESPGKTVTISCTRSSGNIDYNYVQWYQQRPGSSPTTVIYEDNVRPSGVPDRFSGSIDSSSNSASLTISGLKTEDEADYYCQSYDYDNQAVVFGGGTKLTVL
B8: SR-AB57-HuFab (antibody, V domains shown)
VH: QVQLVESGGGVVQPGRSLRLSCAASGFTFRSYVMHWVRQAPGKGLEWVAVISHEGSGKYYADSVKGRFTISRDNSKNTLYLQMNSLRAEDTAVYYCALPRIAARRGGFGSWGQGTLVTVSS
VL: NFMLTQPHSVSESPGKTVTISCTRSSGNIDYNYVQWYQQRPGSSPTTVIYEDNVRPSGVPDRFSGSIDSSSNSASLTISGLKTEDEADYYCQGYDWDTQGVVFGGGTKLTVL
B9: SR-AB60-HuFab (antibody, V domains shown)
VH: QVQLVESGGGVVQPGRSLRLSCAASGFTFRSYVMHWVRQAPGKGLEWVAVISHEGSGKYYADSVKGRFTISRDNSKNTLYLQMNSLRAEDTAVYYCALPRIAARRGGFGTWGQGTLVTVSS
VL: NFMLTQPHSVSESPGKTVTISCTRSSGNIDYNYVQWYQQRPGSSPTTVIYEDNVRPSGVPDRFSGSIDSSSNSASLTISGLKTEDEADYYCQSYDYDTQGVVFGGGTKLTVL
B10: SR-AB54-HuFab (antibody, V domains shown)
VH: QVQLVESGGGVVQPGRSLRLSCAASGFTFRSYVMHWVRQAPGKGLEWVAVISHEGSGKYYADSVKGRFTISRDNSKNTLYLQMNSLRAEDTAVYYCALPRIAARRGGFGSWGQGTLVTVSS
VL: NFMLTQPHSVSESPGKTVTISCTRSSGNIDYNYVQWYQQRPGSSPTTVIYEDNVRPSGVPDRFSGSIDSSSNSASLTISGLKTEDEADYYCQSYDSDNQRVVFGGGTKLTVL
B11: SR-AB56-HuFab (antibody, V domains shown)
VH: QVQLVESGGGVVQPGRSLRLSCAASGFTFRSYVMHWVRQAPGKGLEWVAVISHEGSGKYYADSVKGRFTISRDNSKNTLYLQMNSLRAEDTAVYYCALPRIAARRGGFGSWGQGTLVTVSS
VL: NFMLTQPHSVSESPGKTVTISCTRSSGNIDYNYVQWYQQRPGSSPTTVIYEDNVRPSGVPDRFSGSIDSSSNSASLTISGLKTEDEADYYCQSYDYDTQGVVFGGGTKLTVL
B12: SR-AB50-HuFab (antibody, V domains shown)
VH: QVQLVESGGGVVQPGRSLRLSCAASGFTFRSYVMHWVRQAPGKGLEWVAVISHEGSGKYYADSVKGRFTISRDNSKNTLYLQMNSLRAEDTAVYYCARPRIAARRGGFGTWGQGTLVTVSS
VL: NFMLTQPHSVSESPGKTVTISCTRSSGNIDYNYVQWYQQRPGSSPTTVIYEDNVRPSGVPDRFSGSIDSSSNSASLTISGLKTEDEADYYCQSYDSDNQRVVFGGGTKLTVL
B13: SR-AB61-HuFab (antibody, V domains shown)
VH: QVQLVESGGGVVQPGRSLRLSCAASGFTFRSYVMHWVRQAPGKGLEWVAVISHEGSGKYYADSVKGRFTISRDNSKNTLYLQMNSLRAEDTAVYYCALPRIAARRGGFGTWGQGTLVTVSS
VL: NFMLTQPHSVSESPGKTVTISCTRSSGNIDYNYVQWYQQRPGSSPTTVIYEDNVRPSGVPDRFSGSIDSSSNSASLTISGLKTEDEADYYCQGYDWDTQGVVFGGGTKLTVL
B14: SR-AB51-HuFab (antibody, V domains shown)
VH: QVQLVESGGGVVQPGRSLRLSCAASGFTFRSYVMHWVRQAPGKGLEWVAVISHEGSGKYYADSVKGRFTISRDNSKNTLYLQMNSLRAEDTAVYYCARPRIAARRGGFGTWGQGTLVTVSS
VL: NFMLTQPHSVSESPGKTVTISCTRSSGNIDYNYVQWYQQRPGSSPTTVIYEDNVRPSGVPDRFSGSIDSSSNSASLTISGLKTEDEADYYCQSYDYDNQAVVFGGGTKLTVL
B15: SR-AB59-HuFab (antibody, V domains shown)
VH: QVQLVESGGGVVQPGRSLRLSCAASGFTFRSYVMHWVRQAPGKGLEWVAVISHEGSGKYYADSVKGRFTISRDNSKNTLYLQMNSLRAEDTAVYYCALPRIAARRGGFGTWGQGTLVTVSS
VL: NFMLTQPHSVSESPGKTVTISCTRSSGNIDYNYVQWYQQRPGSSPTTVIYEDNVRPSGVPDRFSGSIDSSSNSASLTISGLKTEDEADYYCQSYDYDNQAVVFGGGTKLTVL
B16: SR-AB58-HuFab (antibody, V domains shown)
VH: QVQLVESGGGVVQPGRSLRLSCAASGFTFRSYVMHWVRQAPGKGLEWVAVISHEGSGKYYADSVKGRFTISRDNSKNTLYLQMNSLRAEDTAVYYCALPRIAARRGGFGTWGQGTLVTVSS
VL: NFMLTQPHSVSESPGKTVTISCTRSSGNIDYNYVQWYQQRPGSSPTTVIYEDNVRPSGVPDRFSGSIDSSSNSASLTISGLKTEDEADYYCQSYDSDNQRVVFGGGTKLTVL

What follows are molecules tested against huLTBP1 proTGFβ1 (Homo sapiens, UniProt P01137+Q14766) (assay: SPR (Biacore 8K) monovalent binding kinetics of Fabs, biotinylated antigen captured). Settings: Fab, huLTBP1 proTGFβ1; SR-AB42-HuFab average of five, SR-AB63-HuFab average of four replicate experiments.
Sequence of huLTBP1 proTGFβ1 (P01137 30-390): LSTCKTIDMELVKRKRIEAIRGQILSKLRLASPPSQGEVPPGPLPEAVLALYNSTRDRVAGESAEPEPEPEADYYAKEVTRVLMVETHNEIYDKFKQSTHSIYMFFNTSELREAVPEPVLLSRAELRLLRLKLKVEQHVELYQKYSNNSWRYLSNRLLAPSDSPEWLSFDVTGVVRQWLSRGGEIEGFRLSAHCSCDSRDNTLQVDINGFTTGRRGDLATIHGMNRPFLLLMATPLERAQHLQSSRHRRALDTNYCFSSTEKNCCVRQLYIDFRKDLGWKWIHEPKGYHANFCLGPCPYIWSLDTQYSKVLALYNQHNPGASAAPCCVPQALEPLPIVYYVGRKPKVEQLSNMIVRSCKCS
Sequence of huLTBP1 proTGFβ1 (Q14766 347-1721 limits assumed): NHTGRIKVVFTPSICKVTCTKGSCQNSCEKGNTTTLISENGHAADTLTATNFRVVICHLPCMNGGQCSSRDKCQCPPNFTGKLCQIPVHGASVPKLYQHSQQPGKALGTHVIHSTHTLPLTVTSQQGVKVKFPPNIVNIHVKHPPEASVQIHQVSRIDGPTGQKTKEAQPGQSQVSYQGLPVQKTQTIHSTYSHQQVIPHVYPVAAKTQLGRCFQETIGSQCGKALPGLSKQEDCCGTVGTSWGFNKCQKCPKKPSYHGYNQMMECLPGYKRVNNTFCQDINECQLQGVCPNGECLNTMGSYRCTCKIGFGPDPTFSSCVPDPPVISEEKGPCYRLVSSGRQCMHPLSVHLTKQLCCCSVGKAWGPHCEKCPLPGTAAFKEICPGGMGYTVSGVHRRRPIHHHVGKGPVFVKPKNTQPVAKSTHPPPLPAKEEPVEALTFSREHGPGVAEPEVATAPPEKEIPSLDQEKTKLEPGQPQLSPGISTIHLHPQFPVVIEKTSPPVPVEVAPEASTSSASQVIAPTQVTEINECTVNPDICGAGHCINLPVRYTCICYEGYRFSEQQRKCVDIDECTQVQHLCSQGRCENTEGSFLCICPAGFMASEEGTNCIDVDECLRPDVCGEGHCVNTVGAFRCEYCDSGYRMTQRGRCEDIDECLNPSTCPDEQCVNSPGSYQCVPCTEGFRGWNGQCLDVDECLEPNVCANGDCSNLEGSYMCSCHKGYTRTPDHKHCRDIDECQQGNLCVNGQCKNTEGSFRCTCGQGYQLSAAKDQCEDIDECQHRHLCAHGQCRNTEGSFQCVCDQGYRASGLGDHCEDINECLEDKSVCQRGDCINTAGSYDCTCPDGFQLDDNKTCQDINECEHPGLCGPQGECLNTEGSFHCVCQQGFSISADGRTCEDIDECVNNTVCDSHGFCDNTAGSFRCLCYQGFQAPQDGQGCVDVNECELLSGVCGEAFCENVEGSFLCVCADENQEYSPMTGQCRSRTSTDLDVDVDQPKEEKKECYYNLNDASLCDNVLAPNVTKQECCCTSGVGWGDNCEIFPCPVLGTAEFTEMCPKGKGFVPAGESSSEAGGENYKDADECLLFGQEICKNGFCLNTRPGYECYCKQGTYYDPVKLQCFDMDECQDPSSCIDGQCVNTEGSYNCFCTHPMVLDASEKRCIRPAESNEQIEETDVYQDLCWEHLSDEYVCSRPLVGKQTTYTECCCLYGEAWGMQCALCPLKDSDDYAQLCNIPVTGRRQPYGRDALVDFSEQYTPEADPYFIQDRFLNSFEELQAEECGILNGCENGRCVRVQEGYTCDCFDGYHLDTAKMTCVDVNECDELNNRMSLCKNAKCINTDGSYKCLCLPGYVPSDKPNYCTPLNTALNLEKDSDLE
Parameters: biotin (complex biotinylated)
Experimental: A Biacore 8K system was employed to determine the monovalent binding affinity and the kinetic parameters for antigen binding of test antibodies. Association and dissociation kinetics of Fab fragments SR-AB42-HuFab, SR-AB63-HuFab and SR-AB43-HuFab to antigen complexes were measured, and resulting ka, kd and KD are provided below. Briefly, the binding kinetics were evaluated by surface plasmon resonance using Biacore 8K (GE Healthcare). Biotinylated capture antigens were immobilized to the chip (10 nM, ˜200 RU loading). A Biotin CAPture sensor chip was used to capture the biotinylated antigens. Fabs at 10, 5, 2.5, 1.25, and 0.6 nM concentrations were injected over the captured antigens. 0 nM was used as a reference. Affinities of LTBP antibodies to GARP and LRRC33 were confirmed using higher concentration of Fabs (100, 50, 25, 12.5, 6.25 nM). 0 nM was used as a reference. Multi-cycle kinetics was employed where each analyte concentration was injected in a separate cycle and the sensor chip surface was regenerated after each cycle. All the assays were carried out in freshly prepared 1×HBS-EP+buffer (10 mM HEPES, 150 mM NaCl, 3 mM EDTA, 0.05% Tween20, pH 7.4). Data were fit globally to a 1:1 binding model to obtain the kinetic parameters. The sensorgram for 0 nM analyte concentration was used as reference.
• 96 well plates—Greinerbio-one REF 650101 • Microplate Foils—GE Healthcare—CAT #28-9758-16 • Biotin CAPture Kit GE Healthcare product number 28920233 • Biacore running buffer—supplied as a 20× solution, diluted in Milli-Q water, TEKnova CAT #H8022 Method:
These experiments were performed using the Biacore 8K using the method “multi-cycle kinetics/affinity using Biotin CAPture kit.”
Data collection rate was set to 10 Hz and the Biotin CAPture step was performed for 300 seconds with a flow rate of 2 μL/minute. The Biotin CAPture reagent was used after a 1:5 dilution in 1× Biacore running buffer. Biotinylated ligands (the various complexes of TGFβ1) were utilized at a concentration of 10 nM and were immobilized to the sensor chip for 180 seconds with a flow rate of 10 μL/minute. The analytes, which are each of the Fabs, were tested at 10, 5, 2.5, 1.25, and 0.625 nM with a 0 nM control included. Analyte contact time was 120 seconds and the dissociation time was 900 seconds. The regeneration cycle utilized was 120 seconds with a flow rate of 10 μL/minute.
The evaluation method used was “multi-cycle affinity using capture” and a 1:1 binding model was used. […] Global fits were utilized for every KD determination.
B1 gave a ka of 1.76e+06 M⁻¹ s⁻¹ and a kd of 0.000104 s⁻¹. For B2, the ka was 2.47e+06 M⁻¹ s⁻¹ and the kd was 0.00011 s⁻¹. B3 was tested, and the ka was 809000 M⁻¹ s⁻¹ and the kd was 0.000138 s⁻¹. In the case of B4, the ka is reported as 2.5e+06 M⁻¹ s⁻¹ and the kd is reported as 9.91e-05 s⁻¹. For B5, the ka was 1.82e+06 M⁻¹ s⁻¹ and the kd was 0.000128 s⁻¹. Molecule B6 has a ka of 1.84e+06 M⁻¹ s⁻¹ and a kd of 0.000136 s⁻¹. For B7, the ka was 862000 M⁻¹ s⁻¹ and the kd was 0.000113 s⁻¹. With B8 the ka was 1.35e+06 M⁻¹ s⁻¹ and the kd was 0.000181 s⁻¹. B9 gave a ka of 2.35e+06 M⁻¹ s⁻¹ and a kd of 0.00012 s⁻¹. For B10, the ka was 1.8e+06 M⁻¹ s⁻¹ and the kd was 8.83e-05 s⁻¹. B11 showed a ka of 2.58e+06 M⁻¹ s⁻¹ and a kd of 0.000126 s⁻¹. B12 showed a ka of 3.31e+06 M⁻¹ s⁻¹ and a kd of 0.000182 s⁻¹. B13 showed a ka of 1.17e+06 M⁻¹ s⁻¹ and a kd of 0.000155 s⁻¹. With B14 the ka was 2.55e+06 M⁻¹ s⁻¹ and the kd was 0.00015 s⁻¹. With B15 the ka was 2.55e+06 M⁻¹ s⁻¹ and the kd was 0.00013 s⁻¹. With B16 the ka was 3.11e+06 M⁻¹ s⁻¹ and the kd was 0.000162 s⁻¹.

Source: patent publication US11214614B2, “LTBP complex-specific inhibitors of TGFβ and uses thereof” (Scholar Rock, Inc., priority 2019, dated 2022)
